Publication doi:10.1101/2021.02.09.429966 (bioRxiv, 2021)

Molecular target: Clumping factor A (ClfA) on S. aureus LACΔspaΔsbi (Staphylococcus aureus USA300 LAC Δspa, …, UniProt A0A0H2XG16)
Test: flow cytometry on cells

binding result: binds
B1: T1-2-IgG1 (antibody, V domains shown)
VH: QVQLKESGPGLVAPSQSLSITCAISGFSLSRYSVHWVRQPPGKGLEWLGMIWGGGNTDYNSALKSRLSISKDNSKSQVFLKMNSLQTDDTAMYYCARKGEFYYGYDGFVYWGQGTLVTVSA
VL: NIMMTQSPSSLAVSAGEKVTMSCKSSQSVLYSSNQKNYLAWYQQKPGQSPKLLIYWASTRESGVPDRFTGSGSGTDFTLTISSVQAEDLAVYYCHQYLSSYTFGGGTKLEIK
